Reference: patent US20040091495A1 (published 2004)

Molecular target: T1, complement factor H (human, UniProt P08603 19-1231, 125I-labelled (Iodobeads) in the blot and bacterial binding assays)
T1 construct: also called fH; FH
Experiment: SPR (Biacore), GST:Hic39-261 captured on anti-GST antibody chip, fH as analyte, Langmuir 1:1 model, mean ± SD of three experiments

T1 sequence (P08603 19-1231 limits assumed): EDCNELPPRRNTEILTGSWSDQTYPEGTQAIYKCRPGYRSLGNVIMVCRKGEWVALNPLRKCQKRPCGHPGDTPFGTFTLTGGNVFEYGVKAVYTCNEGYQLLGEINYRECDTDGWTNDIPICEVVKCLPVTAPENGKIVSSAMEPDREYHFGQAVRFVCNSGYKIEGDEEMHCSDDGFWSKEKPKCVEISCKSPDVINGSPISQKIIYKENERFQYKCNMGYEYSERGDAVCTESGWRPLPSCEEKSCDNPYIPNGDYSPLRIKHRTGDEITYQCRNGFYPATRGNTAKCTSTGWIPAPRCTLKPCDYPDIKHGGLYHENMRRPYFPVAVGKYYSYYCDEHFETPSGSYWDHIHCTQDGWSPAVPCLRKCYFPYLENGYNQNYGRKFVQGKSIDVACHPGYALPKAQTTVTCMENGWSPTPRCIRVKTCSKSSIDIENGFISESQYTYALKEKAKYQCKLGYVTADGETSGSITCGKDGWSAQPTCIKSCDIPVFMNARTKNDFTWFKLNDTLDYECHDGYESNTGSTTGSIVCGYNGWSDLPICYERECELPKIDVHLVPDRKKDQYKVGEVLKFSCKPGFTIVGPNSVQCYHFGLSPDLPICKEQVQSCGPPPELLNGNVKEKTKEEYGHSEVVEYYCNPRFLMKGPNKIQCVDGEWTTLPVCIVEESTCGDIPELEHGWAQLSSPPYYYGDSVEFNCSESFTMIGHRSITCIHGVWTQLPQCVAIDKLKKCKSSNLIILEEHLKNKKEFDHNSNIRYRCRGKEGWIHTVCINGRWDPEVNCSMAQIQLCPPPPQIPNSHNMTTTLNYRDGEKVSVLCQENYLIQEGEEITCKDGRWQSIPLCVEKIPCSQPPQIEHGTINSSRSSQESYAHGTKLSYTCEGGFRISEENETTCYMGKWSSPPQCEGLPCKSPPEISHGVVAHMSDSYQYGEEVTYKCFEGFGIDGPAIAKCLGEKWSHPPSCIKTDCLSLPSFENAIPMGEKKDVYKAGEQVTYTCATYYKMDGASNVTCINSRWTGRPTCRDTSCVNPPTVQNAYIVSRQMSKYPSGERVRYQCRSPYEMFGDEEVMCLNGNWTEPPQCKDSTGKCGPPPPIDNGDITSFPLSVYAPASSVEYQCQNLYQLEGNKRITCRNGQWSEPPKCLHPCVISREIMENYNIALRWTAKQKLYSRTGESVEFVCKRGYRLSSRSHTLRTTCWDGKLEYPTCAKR

B1: GST:Hic^39-261 fusion protein (other)
chain: EKEVTTQVATSSNKANKSQTEHMKAAKQVDEYIEKMLSEIQLDRRKHTQNVGLLTKLGAIKTEYLRGLSVSKEKSTAELPSEIKEKLTAAFEQFKKDTLKSGKKVAEAQKKAKDQKEAKQEIEALIVKHKGREIDLDRKKAKAAVTEHLKKLLNDIEKNLKKEQHTHTVELIKNLKDIEKTYLHKLDESTQKAQLQKLIAESQSKLDEAFSKFKNGLSSSSNS
notes: main band 54 kDa, partly degraded; Vector-derived residues after the EcoRI site, if any, are not described; also called fusion between GST and the NH2-terminal Hic region; not shown: glutathione S-transferase (GST) encoded by vector pGEX-5X-3 (Pharmacia Biotech); vector-encoded residues between GST and the BamHI cloning site of pGEX-5X-3
Q: Which Ka does the source give for B1 here?
A: 5e+07 M⁻¹

Q: What about the Kd of the same binder?
A: 23 nM

Q: And the koff?
A: 0.00061 s⁻¹

Q: And the kon?
A: 28000 M⁻¹ s⁻¹
